Results as given in PMC5897418, “A Synthesized Glucocorticoid- Induced Leucine Zipper Peptide Inhibits Retinal Müller Cell Gliosis” (Frontiers in Pharmacology, 2018).
No end group written: not given here.

B1: His-tag-GILZ-p (TAT-GILZ 98-134 peptide with a C-terminal 6x His tag) (peptide)
peptide: YGRKKRRQRRRKTLASPEQLEKFQSRLSPEEPAPEAPETPEAPGGSAV

How the values were obtained:
[1] = system: Müller cells; settings: 10 μM FITC-labeled GILZ-p, 6 and 12 h, confocal immunofluorescence
Procedure: Müller cells were cultured on 6-well plates and starved in serum-free DMEM F12 for 24 h. The cells were then treated with 10 μM fluorescein isothiocyanate (FITC)-labeled GILZ-p for 6 and 12 h, respectively. After treatment, the Müller cells were washed with PBS, fixed in 4% paraformaldehyde (Sigma-Aldrich Corp., St. Louis, MO, United States), and permeabilized in 0.1% Triton X-100 (Promega, Madison, WI, United States) for 10 min. The cells were counterstained with 4′6-diamidino-2-phenylindole (DAPI) (Sigma-Aldrich Corp.) and examined under a laser confocal microscope (Leica Microsystems, Wetzlar, Hesse-Darmstadt, Germany).

[2] = system: Müller cells; settings: 10, 50, 100, and 150 μM, 24 h, primary rat Müller cells, n = 6, compared with control group
Procedure: The viability of Müller cells was determined by the cell counting kit-8 (CCK-8) assay. Briefly, 0.5 × 10^5 cells per well were seeded in 96-well plates and allowed to attach overnight. Then, the culture media were replaced with fresh media containing different concentrations of GILZ-p (0, 10, 50, 100, and 150 μM). After 24 h, 10 μL CCK-8 (Dojindo, Kumamoto, Japan) solution was added to each well, and the plates were incubated for another 2 h. Measurements of optical density were obtained at a wavelength of 450 nm using a spectrophotometer.

[3] = system: Müller cells; settings: 10 μM FITC-labeled GILZ-p, 15 min, serum-starved primary rat Müller cells, flow cytometry
Procedure: Müller cells were cultured on 6-well plates and starved in serum-free DMEM F12 for 24 h.
Müller cells were cultured on 6-well plates and starved in serum-free DMEM F12 for 24 h. […] Click here for additional data file.

[4] = water and culture medium
[5] = target: nuclear factor (NF)-κB p65 (rat (endogenous in primary retinal …, UniProt Q7TQN4 1-550)); assay: cell-based or functional assay
nuclear factor (NF)-κB p65 (rat, sequence (Q7TQN4 whole entry): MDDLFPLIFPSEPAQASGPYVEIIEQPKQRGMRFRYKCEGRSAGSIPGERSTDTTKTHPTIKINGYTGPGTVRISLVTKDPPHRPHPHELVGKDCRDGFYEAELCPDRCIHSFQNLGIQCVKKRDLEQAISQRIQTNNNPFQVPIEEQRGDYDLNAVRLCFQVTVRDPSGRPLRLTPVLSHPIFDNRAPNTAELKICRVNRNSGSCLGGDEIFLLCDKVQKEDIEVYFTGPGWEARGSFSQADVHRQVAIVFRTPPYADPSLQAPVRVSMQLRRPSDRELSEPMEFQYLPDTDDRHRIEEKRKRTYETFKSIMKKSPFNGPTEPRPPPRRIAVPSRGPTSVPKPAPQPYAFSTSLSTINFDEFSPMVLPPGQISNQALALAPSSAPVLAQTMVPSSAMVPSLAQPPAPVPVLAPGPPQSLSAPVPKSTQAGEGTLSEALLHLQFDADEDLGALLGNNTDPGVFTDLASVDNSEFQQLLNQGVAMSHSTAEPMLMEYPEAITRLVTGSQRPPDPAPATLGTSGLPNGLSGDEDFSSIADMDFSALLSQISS

Molecule	intracellular localisation of GILZ-p [1]	cytotoxicity (cell viability, CCK-8) [2]	Müller cells associated with GILZ-p [3]	solubility [4]	IC50 of GILZ-p (without the His tag) for inhibiting LPS-induced ICAM-1 expression in Müller cells (western blot, 24 h) [5] [µM]	IC50 of GILZ-p (without the His tag) for inhibiting LPS-induced IL-1β expression in Müller cells (western blot, 24 h) [5] [µM]	IC50 of GILZ-p (without the His tag) for inhibiting LPS-induced MCP-1 expression in Müller cells (western blot, 24 h) [5] [µM]	IC50 of GILZ-p (without the His tag) for inhibiting LPS-induced TNFα expression in Müller cells (western blot, 24 h) [5] [µM]	IC50 of GILZ-p (without the His tag) for inhibiting the LPS-induced downregulation of AQP4 in Müller cells (western blot, 24 h) [5] [µM]	IC50 of GILZ-p (without the His tag) for inhibiting the LPS-induced upregulation of GFAP in Müller cells (western blot, 24 h) [5] [µM]
YGRKKRRQRRRKTLASPEQLEKFQSRLSPEEPAPEAPETPEAPGGSAV [GILZ-p]	aggregated in the cytoplasm	no detectable toxicity	about 7.92%	water-soluble and fully dissolved in culture medium	–	–	–	–	–	–
B1	–	–	–	–	7.13	8.93	5.82	8.77	2.32	11.2
